Residue numbers refer to the chain shown, from its start. In names and notes the source's numbering stands. Each block holds one binder with its values, some of them ahead of it.
Tests used:
[1] = target: T1, monovalent hVISTA-ECD (amino acids 32-193 of SEQ ID NO: 1 with a 7xHis tail) (human, UniProt Q9H7M9 33-193); test: SPR 37C, Ab on Protein A, hVISTA-ECD 50-5 nM, pH 7.4, average
T1 construct: analyte of the SPR assays; also called huVISTA-His; human VISTA-ECD
Method: (§1) Binding of several preparations of each of the ‘029 progeny clones and of the parent ‘029 antibodies, formatted as IgG1.3 antibodies, to human VISTA at pH 6.0 and 7.4 was measured by Surface plasmon resonance (SPR). SPR analysis was performed to measure koff and KD binding affinity measurements for VISTA Abs at acidic and neutral pHs using a Biacore® T100 instrument (GE Healthcare). […] Antibodies were diluted to 25 nM in PBST pH 7.4, and were captured across active biosensor flow cells at 5 ul/min for 60 seconds. A concentration series of 50 - 5 nM monovalent hVISTA-ECD (SEQ ID NO: 325) was prepared in pH 7.4 and 6.0 running buffers, and was injected over the captured antibodies at 40 ul/min to measure association and dissociation. Two 15 second injections of 10 mM glycine pH 1.5 were used to regenerate the Protein A capture surface between assay cycles. Rate constants ka (kₒₙ) and kd (koff) were derived from reference flow cell and 0 nM blank-subtracted sensorgrams, and were fit to a 1:1 binding model in Biacore® T200 Evaluation Software v.2.0. The affinity constant, KD was calculated as the ratio of rate constants koff/kₒₙ for each VISTA antibody.

[2] = target: T1, monovalent hVISTA-ECD (amino acids …); test: SPR 37C, Ab on Protein A, hVISTA-ECD 50-5 nM, pH 6.0, average
Method: as §1

[3] = target: T1, monovalent hVISTA-ECD (amino acids …); test: SPR, pH 7.4 over pH 6.0
Method: (§2) Further binding kinetic experiments were performed at various pHs on VISTA antibodies described herein by SPR as generally described in Example 9 above. Antibodies were normalized to 50 nM concentration in PBST pH 7.4 and captured on a Protein A CM5 chip (ID 4931) by injecting for 45 seconds at a 5 µL/min flow rate. An 8-point human VISTA titration ([…]) was prepared in PBST at pH 7.4, 6.9, 6.45, and 6.0. Titrations were injected over the captured antibodies for 180 seconds at 30 µL/min. Sensorgrams were fit to a 1:1 binding model in T200 evaluation software and the kinetic constants were reported.
Each table reports the data at one of the four tested pHs (7.4, 6.9, 6.45, and 6.0, respectively). The 8-point hVISTA titration used in these assays was chosen to provide increased confidence in kinetic values reported at neutral pH conditions. A relatively stringent cutoff for non-binding was applied in this assay. Certain progeny of P1-061029 antibody (P1-068757, ‘759, ‘765, ‘771, and ‘775) show no binding to hVISTA at micromolar concentrations at pH 7.4, while ‘761 and ‘767 show no binding to hVISTA at 100 nM at pH 7.4 but do show binding to hVISTA at micromolar concentrations.

[4] = target: T1, monovalent hVISTA-ECD (amino acids …); test: SPR, Ab on Protein A, hVISTA 100-7.8 nM, pH 7.4
Method: as §2

[5] = target: T2, monovalent hVISTA-ECD with polyhistidine tail (SEQ ID NO: 325) (human, UniProt Q9H7M9 33-193); test: SPR, mAb captured on Protein A chip, hVISTA injected, PBST pH 6.0, 37 C
T2 construct: also called hVISTA-ECD 6-His tag; human VISTA
T2 sequence (Q9H7M9 other isoform, or with tags, fused parts or gaps limits assumed): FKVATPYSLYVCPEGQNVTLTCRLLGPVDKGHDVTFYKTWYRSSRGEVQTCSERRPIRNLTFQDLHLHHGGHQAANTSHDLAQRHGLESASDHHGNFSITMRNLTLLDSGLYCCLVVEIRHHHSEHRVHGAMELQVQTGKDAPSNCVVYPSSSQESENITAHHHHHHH

[6] = target: T2, monovalent hVISTA-ECD with …; test: SPR, mAb captured on Protein A chip, hVISTA injected, PBST pH 7.4, 37 C

T1 sequence (Q9H7M9 other isoform, or with tags, fused parts or gaps limits assumed): as above

B1: P1-069065 (antibody, human IgG1, kappa, V domains shown)
VH: EVQLVESGGGLVQPGKSLRLSCAASGFTLEDEAMHWVRQAPGKGLEWVSGINWNSDDIGYADSVKGRFTISRDNAKNSLYLQMNSLRTEDTALYYCAKVPGYSGGWIDAFDVWGQGTMVTVSS
VL: not shown
notes: IgG1.3
Kd [1]: 39 nM
koff [1]: 0.0023 s⁻¹
kon [1]: 59000 M⁻¹ s⁻¹
Kd [2]: 0.38 nM
koff [2]: 0.00022 s⁻¹
kon [2]: 570000 M⁻¹ s⁻¹

B2: P1-069077 (antibody, human IgG1, kappa, V domains shown)
VH: B1 VH with D57E
VL: not shown
notes: IgG1.3
Kd [1]: 31 nM
koff [1]: 0.0019 s⁻¹
kon [1]: 60000 M⁻¹ s⁻¹
Kd [2]: 0.19 nM
koff [2]: 0.00012 s⁻¹
kon [2]: 630000 M⁻¹ s⁻¹

B3: P1-070868 (P1-068761_E55A) (antibody, human IgG1, kappa, V domains shown)
VH: B1 VH with D56A, D57E, G104H, F110E
VL: not shown
notes: IgG1.3; also called P1-070868-6
7.4 KD/ 6.0 KD [3]: 625
7.4 kd/ 6.0 kd [3]: 18.9
Kd [4]: 3400 nM
koff [4]: 0.044 s⁻¹
kon [4]: 13000 M⁻¹ s⁻¹

B4: P1-070906 (P1-068767_D52N) (antibody, human IgG1, kappa, V domains shown)
VH: B1 VH with E32Y, D56E, D57N, F110E, V112D
VL: not shown
notes: IgG1.3; also called P1-070906-6
7.4 KD/ 6.0 KD [3]: 731
7.4 kd/ 6.0 kd [3]: 15.3
Kd [4]: 4400 nM
koff [4]: 0.029 s⁻¹
kon [4]: 6500 M⁻¹ s⁻¹

B5: P1-069067 (antibody, human IgG1, kappa, V domains shown)
VH: B1 VH with E30D, E32Y, D56E, D57E, F110D, V112E
VL: not shown
notes: IgG1.3
Kd [1]: 290 nM
koff [1]: 0.027 s⁻¹
kon [1]: 100000 M⁻¹ s⁻¹
Kd [2]: 2.7 nM
koff [2]: 0.0045 s⁻¹
kon [2]: 1.7e+06 M⁻¹ s⁻¹

Continued, values first:

Kd [5]: 53 nM
koff [5]: 0.0034 s⁻¹
kon [5]: 62000 M⁻¹ s⁻¹
Kd [6]: 22 nM
koff [6]: 0.0036 s⁻¹
kon [6]: 160000 M⁻¹ s⁻¹
B6: P1-077881 (P1-068748 D58Y D100S) (antibody, V domains shown)
VH: QVQLVESGGGVVQPGRSLRLSCAASGFTFSHHAMHWVRQAPGKGLEWVAIIWYDGSNDYYADSVKGRFTISRDNSKNTLYLQMNSLRAEDTAVYYCARDSGFYSSYYFDYWGQGTLVTVSS
VL: EIVLTQSPATLSLSPGERATLSCRASQSVSSSYLAWYQQKPGQAPRLLIYDASNRATGIPARFSGSGSGTDFTLTISSLEPEDFATYYCQQYNSYPYTFGQGTKLEIK
notes: Reversion mutant of P1-068748 (Kabat names); captured on a Protein A chip

Kd [5]: 0.43 nM
koff [5]: 0.00058 s⁻¹
kon [5]: 1.4e+06 M⁻¹ s⁻¹
Kd [6]: 4.7 nM
koff [6]: 0.0019 s⁻¹
kon [6]: 400000 M⁻¹ s⁻¹
B7: P1-077893 (P1-068748 D57K D100S) (antibody, V domains shown)
VH: B6 VH with D58K, Y59D
VL: B6 VL
notes: Reversion mutant of P1-068748 (Kabat names); the antibody was captured on a Protein A chip, so an Fc was present

Kd [5]: 130 nM
koff [5]: 0.022 s⁻¹
kon [5]: 180000 M⁻¹ s⁻¹
Kd [6]: 2400 nM
koff [6]: 0.073 s⁻¹
kon [6]: 31000 M⁻¹ s⁻¹
B8: P1-077889 (P1-068748 H32Y D58Y) (antibody, V domains shown)
VH: B6 VH with H32Y, S104D
VL: B6 VL
notes: as for B6

Kd [5]: 0.52 nM
koff [5]: 0.0011 s⁻¹
kon [5]: 2.1e+06 M⁻¹ s⁻¹
Kd [6]: 3 nM
koff [6]: 0.0027 s⁻¹
kon [6]: 910000 M⁻¹ s⁻¹
B9: P1-077887 (P1-068748 H31S D100S) (antibody, V domains shown)
VH: B6 VH with H31S, Y59D
VL: B6 VL
notes: as for B6

Kd [5]: 0.36 nM
koff [5]: 0.00099 s⁻¹
kon [5]: 2.7e+06 M⁻¹ s⁻¹
Kd [6]: 2.1 nM
koff [6]: 0.0025 s⁻¹
kon [6]: 1.2e+06 M⁻¹ s⁻¹
B10: P1-077891 (P1-068748 H32Y D100S) (antibody, V domains shown)
VH: B6 VH with H32Y, Y59D
VL: B6 VL
notes: as for B6

Kd [5]: 6.7 nM
koff [5]: 0.002 s⁻¹
kon [5]: 310000 M⁻¹ s⁻¹
Kd [6]: 510 nM
koff [6]: 0.035 s⁻¹
kon [6]: 68000 M⁻¹ s⁻¹
B11: P1-077883 (P1-068748 H31S D57K) (antibody, V domains shown)
VH: B6 VH with H31S, D58K, Y59D, S104D
VL: B6 VL
notes: as for B6
